Measurements as given in the supplement of paper PMC11246515.
± gives the standard deviation of the averaged measurements.

Test: total protein half-life in vivo (active degradation + dilution); higher = more stable protein
[1] = E. coli NCM3722 delta-clpP delta-lon delta-hslV, growth: N-lim chemostat, doubling time 6 h
[2] = E. coli NCM3722 delta-clpP, growth: N-lim chemostat, doubling time 6 h
[3] = E. coli NCM3722 delta-hslV, growth: N-lim chemostat, doubling time 6 h
[4] = E. coli NCM3722 delta-lon, growth: N-lim chemostat, doubling time 6 h
[5] = E. coli NCM3722 delta-smpB, growth: N-lim chemostat, doubling time 6 h
[6] = wild type E. coli NCM3722, growth: C-lim chemostat, doubling time 3 h
[7] = wild type E. coli NCM3722, growth: C-lim chemostat, doubling time 6 h
[8] = wild type E. coli NCM3722, growth: C-lim chemostat, doubling time 12 h
[9] = wild type E. coli NCM3722, growth: N-lim chemostat, doubling time 6 h
[10] = wild type E. coli NCM3722, growth: N-lim chemostat, doubling time 12 h
[11] = wild type E. coli NCM3722, growth: P-lim chemostat, doubling time 6 h
[12] = wild type E. coli NCM3722, growth: P-lim chemostat, doubling time 12 h

Sequence: MPFTLGQRWISDTESELGLGTVVAVDARTVTLLFPSTGENRLYARSDSPVTRVMFNPGDTITSHDGWQMQVEEVKEENGLLTYIGTRLDTEESGVALREVFLDSKLVFSKPQDRLFAGQIDRMDRFALRYRARKYSSEQFRMPYSGLRGQRTSLIPHQLNIAHDVGRRHAPRVLLADEVGLGKTIEAGMILHQQLLSGAAERVLIIVPETLQHQWLVEMLRRFNLRFALFDDERYAEAQHDAYNPFDTEQLVICSLDFARRSKQRLEHLCEAEWDLLVVDEAHHLVWSEDAPSREYQAIEQLAEHVPGVLLLTATPEQLGMESHFARLRLLDPNRFHDFAQFVEEQKNYRPVADAVAMLLAGNKLSNDELNMLGEMIGEQDIEPLLQAANSDSEDAQSARQELVSMLMDRHGTSRVLFRNTRNGVKGFPKRELHTIKLPLPTQYQTAIKVSGIMGARKSAEDRARDMLYPERIYQEFEGDNATWWNFDPRVEWLMGYLTSHRSQKVLVICAKAATALQLEQVLREREGIRAAVFHEGMSIIERDRAAAWFAEEDTGAQVLLCSEIGSEGRNFQFASHMVMFDLPFNPDLLEQRIGRLDRIGQAHDIQIHVPYLEKTAQSVLVRWYHEGLDAFEHTCPTGRTIYDSVYNDLINYLASPDQTEGFDDLIKNCREQHEALKAQLEQGRDRLLEIHSNGGEKAQALAESIEEQDDDTNLIAFAMNLFDIIGINQDDRGDNMIVLTPSDHMLVPDFPGLSEDGITITFDREVALAREDAQFITWEHPLIRNGLDLILSGDTGSSTISLLKNKALPVGTLLVELIYVVEAQAPKQLQLNRFLPPTPVRMLLDKNGNNLAAQVEFETFNRQLNAVNRHTGSKLVNAVQQDVHAILQLGEAQIEKSARALIDAARNEADEKLSAELSRLEALRAVNPNIRDDELTAIESNRQQVMESLDQAGWRLDALRLIVVTHQ
- total protein half-life in vivo [1]: 5.68 ± 0.18 h
- total protein half-life in vivo [2]: 5.48 ± 0.61 h
- total protein half-life in vivo [3]: 5.139 ± 0.024 h
- total protein half-life in vivo [4]: 5.36 ± 0.42 h
- total protein half-life in vivo [5]: 5.21 ± 0.39 h
- total protein half-life in vivo [6]: 3.11 ± 0.088 h
- total protein half-life in vivo [7]: 6.26 ± 0.79 h
- total protein half-life in vivo [8]: 12.5 ± 1.6 h
- total protein half-life in vivo [9]: 5.09 ± 0.06 h
- total protein half-life in vivo [10]: 9.51 ± 1.1 h
- total protein half-life in vivo [11]: 6.156 ± 0.013 h
- total protein half-life in vivo [12]: 12.1 ± 1.1 h

Sequence: MDDQLKQSALDFHEFPVPGKIQVSPTKPLATQRDLALAYSPGVAAPCLEIEKDPLKAYKYTARGNLVAVISNGTAVLGLGNIGALAGKPVMEGKGVLFKKFAGIDVFDIEVDELDPDKFIEVVAALEPTFGGINLEDIKAPECFYIEQKLRERMNIPVFHDDQHGTAIISTAAILNGLRVVEKNISDVRMVVSGAGAAAIACMNLLVALGLQKHNIVVCDSKGVIYQGREPNMAETKAAYAVVDDGKRTLDDVIEGADIFLGCSGPKVLTQEMVKKMARAPMILALANPEPEILPPLAKEVRPDAIICTGRSDYPNQVNNVLCFPFIFRGALDVGATAINEEMKLAAVRAIAELAHAEQSEVVASAYGDQDLSFGPEYIIPKPFDPRLIVKIAPAVAKAAMESGVATRPIADFDVYIDKLTEFVYKTNLFMKPIFSQARKAPKRVVLPEGEEARVLHATQELVTLGLAKPILIGRPNVIEMRIQKLGLQIKAGVDFEIVNNESDPRFKEYWTEYFQIMKRRGVTQEQAQRALISNPTVIGAIMVQRGEADAMICGTVGDYHEHFSVVKNVFGYRDGVHTAGAMNALLLPSGNTFIADTYVNDEPDAEELAEITLMAAETVRRFGIEPRVALLSHSNFGSSDCPSSSKMRQALELVRERAPELMIDGEMHGDAALVEAIRNDRMPDSSLKGSANILVMPNMEAARISYNLLRVSSSEGVTVGPVLMGVAKPVHVLTPIASVRRIVNMVALAVVEAQTQPL
- total protein half-life in vivo [1]: 5.85 ± 0.24 h
- total protein half-life in vivo [2]: 6.35 ± 2.2 h
- total protein half-life in vivo [3]: 5.84 ± 0.13 h
- total protein half-life in vivo [4]: 7.1 ± 0.61 h
- total protein half-life in vivo [5]: 5.6 ± 0.15 h
- total protein half-life in vivo [6]: 3.13 ± 0.15 h
- total protein half-life in vivo [7]: 5.948 ± 0.055 h
- total protein half-life in vivo [8]: 10.7 ± 0.31 h
- total protein half-life in vivo [9]: 5.97 ± 0.3 h
- total protein half-life in vivo [10]: 10.983 ± 0.005 h
- total protein half-life in vivo [11]: 6.35 ± 0.11 h
- total protein half-life in vivo [12]: 12.2 ± 1.3 h

Sequence: MEMTNAQRLILSNQYKMMTMLDPANAERYRRLQTIIERGYGLQMRELDREFGELKEETCRTIIDIMEMYHALHVSWSNLQDQQSIDERRVTFLGFDAATEARYLGYVRFMVNVEGRYTHFDAGTHGFNAQTPMWEKYQRMLNVWHACPRQYHLSANEINQIINA [P0A8W8]
- total protein half-life in vivo [1]: 6.72 ± 0.27 h
- total protein half-life in vivo [2]: 6.41 ± 0.99 h
- total protein half-life in vivo [3]: 6.154 ± 0.032 h
- total protein half-life in vivo [4]: 6.11 ± 0.3 h
- total protein half-life in vivo [5]: 5.32 ± 0.45 h
- total protein half-life in vivo [6]: 3.28 ± 0.18 h
- total protein half-life in vivo [7]: 6.14 ± 0.35 h
- total protein half-life in vivo [8]: 12.1 ± 0.18 h
- total protein half-life in vivo [9]: 5.83 ± 0.58 h
- total protein half-life in vivo [10]: 12.9 ± 2.1 h
- total protein half-life in vivo [11]: 6.41 ± 0.61 h
- total protein half-life in vivo [12]: > 16 h

Sequence: MPKLVTWMNNQRVGELTKLANGAHTFKYAPEWLASRYARPLSLSLPLQRGNITSDAVFNFFDNLLPDSPIVRDRIVKRYHAKSRQPFDLLSEIGRDSVGAVTLIPEDETVTHPIMAWEKLTEARLEEVLTAYKADIPLGMIREENDFRISVAGAQEKTALLRIGNDWCIPKGITPTTHIIKLPIGEIRQPNATLDLSQSVDNEYYCLLLAKELGLNVPDAEIIKAGNVRALAVERFDRRWNAERTVLLRLPQEDMCQTFGLPSSVKYESDGGPGIARIMAFLMGSSEALKDRYDFMKFQVFQWLIGATDGHAKNFSVFIQAGGSYRLTPFYDIISAFPVLGGTGIHISDLKLAMGLNASKGKKTAIDKIYPRHFLATAKVLRFPEVQMHEILSDFARMIPAALDNVKTSLPTDFPENVVTAVESNVLRLHGRLSREYGSK
- total protein half-life in vivo [1]: 5.44 ± 0.06 h
- total protein half-life in vivo [3]: 5.63 ± 0.078 h
- total protein half-life in vivo [4]: 5.73 ± 0.54 h
- total protein half-life in vivo [5]: 5.22 ± 0.39 h
- total protein half-life in vivo [6]: 3 ± 0.061 h
- total protein half-life in vivo [7]: 5.65 ± 0.24 h
- total protein half-life in vivo [8]: 10.8 ± 0.14 h
- total protein half-life in vivo [9]: 5.21 ± 0.73 h
- total protein half-life in vivo [10]: 9.66 ± 1.8 h
- total protein half-life in vivo [11]: 6.37 ± 0.53 h

Sequence: MSEALKILNNIRTLRAQARECTLETLEEMLEKLEVVVNERREEESAAAAEVEERTRKLQQYREMLIADGIDPNELLNSLAAVKSGTKAKRAQRPAKYSYVDENGETKTWTGQGRTPAVIKKAMDEQGKSLDDFLIKQ [P0ACF8]
- total protein half-life in vivo [3]: 6.19 ± 0.062 h
- total protein half-life in vivo [4]: 7.64 ± 0.48 h
- total protein half-life in vivo [5]: 5.87 ± 1.2 h
- total protein half-life in vivo [6]: 2.9 ± 0.29 h
- total protein half-life in vivo [7]: 6.22 ± 0.29 h
- total protein half-life in vivo [8]: 9.37 ± 0.21 h
- total protein half-life in vivo [9]: 5.27 ± 0.45 h
- total protein half-life in vivo [10]: 11.6 ± 2.7 h
- total protein half-life in vivo [11]: 5.16 ± 0.77 h
- total protein half-life in vivo [12]: 11.7 ± 0.41 h

Sequence: MLAFLNQVRKPTLDLPLEVRRKMWFKPFMQSYLVVFIGYLTMYLIRKNFNIAQNDMISTYGLSMTQLGMIGLGFSITYGVGKTLVSYYADGKNTKQFLPFMLILSAICMLGFSASMGSGSVSLFLMIAFYALSGFFQSTGGSCSYSTITKWTPRRKRGTFLGFWNISHNLGGAGAAGVALFGANYLFDGHVIGMFIFPSIIALIVGFIGLRYGSDSPESYGLGKAEELFGEEISEEDKETESTDMTKWQIFVEYVLKNKVIWLLCFANIFLYVVRIGIDQWSTVYAFQELKLSKAVAIQGFTLFEAGALVGTLLWGWLSDLANGRRGLVACIALALIIATLGVYQHASNEYIYLASLFALGFLVFGPQLLIGVAAVGFVPKKAIGAADGIKGTFAYLIGDSFAKLGLGMIADGTPVFGLTGWAGTFAALDIAAIGCICLMAIVAVMEERKIRREKKIQQLTVA [P0AGC0]
- total protein half-life in vivo [6]: 1.74 ± 0.042 h
- total protein half-life in vivo [7]: 1.96 ± 0.031 h
- total protein half-life in vivo [8]: 3.78 ± 2.4 h

Sequence: MGNNLMQTDLSVWGMYQHADIVVKCVMIGLILASVVTWAIFFSKSVEFFNQKRRLKREQQLLAEARSLNQANDIAADFGSKSLSLHLLNEAQNELELSEGSDDNEGIKERTSFRLERRVAAVGRQMGRGNGYLATIGAISPFVGLFGTVWGIMNSFIGIAQTQTTNLAVVAPGIAEALLATAIGLVAAIPAVVIYNVFARQIGGFKAMLGDVAAQVLLLQSRDLDLEASAAAHPVRVAQKLRAG [P0ABU7]
- total protein half-life in vivo [1]: 6.15 ± 0.21 h
- total protein half-life in vivo [2]: 6.38 ± 2.2 h
- total protein half-life in vivo [5]: 1.58 ± 1 h
- total protein half-life in vivo [6]: 1.68 ± 0.17 h
- total protein half-life in vivo [7]: 1.99 h
- total protein half-life in vivo [8]: 3.22 h
- total protein half-life in vivo [11]: 1.38 h
- total protein half-life in vivo [12]: 3.56 h

Sequence: MGSTSSLYAAIDLGSNSFHMLVVREVAGSIQTLTRIKRKVRLAAGLNSENALSNEAMERGWQCLRLFAERLQDIPPSQIRVVATATLRLAVNAGDFIAKAQEILGCPVQVISGEEEARLIYQGVAHTTGGADQRLVVDIGGASTELVTGTGAQTTSLFSLSMGCVTWLERYFADRNLGQENFDAAEKAAREVLRPVADELRYHGWKVCVGASGTVQALQEIMMAQGMDERITLEKLQQLKQRAIHCGRLEELEIDGLTLERALVFPSGLAILIAIFTELNIQCMTLAGGALREGLVYGMLHLAVEQDIRSRTLRNIQRRFMIDIDQAQRVAKVAANFFDQVENEWHLEAISRDLLISACQLHEIGLSVDFKQAPQHAAYLVRNLDLPGFTPAQKKLLATLLLNQTNPVDLSSLHQQNAVPPRVAEQLCRLLRLAIIFASRRRDDLVPEMTLQANHELLTLTLPQGWLTQHPLGKEIIAQESQWQSYVHWPLEVH
- total protein half-life in vivo [1]: 4.11 ± 0.81 h
- total protein half-life in vivo [2]: 3.91 ± 0.1 h
- total protein half-life in vivo [3]: 3.77 ± 0.53 h
- total protein half-life in vivo [4]: 3.75 ± 0.87 h
- total protein half-life in vivo [5]: 3.64 ± 0.35 h
- total protein half-life in vivo [6]: 2.92 ± 0.24 h
- total protein half-life in vivo [7]: 5.11 ± 0.2 h
- total protein half-life in vivo [8]: 9.31 ± 0.75 h
- total protein half-life in vivo [9]: 3.94 ± 0.33 h
- total protein half-life in vivo [10]: 5.6 ± 0.23 h
- total protein half-life in vivo [11]: 5.28 ± 1 h
- total protein half-life in vivo [12]: 11.3 ± 0.41 h
